Test results from patent US20080274950A1 (BABRAHAM INSTITUTE, published 2008).

B1: wild type chicken N-cadherin-Fc fusion protein, dimeric (linked by disulphide bonds at the Ig hinge region) (Fc fusion, UniProt P10288 165-729, looked up)
chain: DWVIPPINLPENSRGPFPQELVRIRSDRDKSLSLRYSVTGPGADQPPTGIFIINPISGQLSVTKPLDREQIASFHLRAHAVDVNGNQVENPIDIVINVIDMNDNRPEFLHQVWNGTVPEGSKPGTYVMTVTAIDADDPNAQNGMLRYRILSQAPSSPSPNMFTINNETGDIITVAAGLDREKVQQYTLIIQATDMEGNPTYGLSNTATAVITVTDVNDNPPEFTAMTFYGEVPENRVDVIVANLTVTDKDQPHTPAWNARYQMTGGDPTGQFTILTDPNSNDGLVTVVKPIDFETNRMFVLTVAAENQVPLAKGIQHPPQSTATVSITVIDVNESPYFVPNPKLVRQEEGLLAGSMLTTFTARDPDRYMQQTSLRYSKLSDPANWLKIDPVNGQITTTAVLDRESIYVQNNMYNATFLASDNGIPPMSGTGTLQIYLLDINDNAPQVNPKEATTCETLQPNAINITAVDPDIDPNAGPFAFELPDSPPSIKRNWTIVRISGDHAQLSLRIRFLEAGIYDVPIVITDSGNPHASSTSVLKVKVCQCDINGDCTDVDRIVGAGLGTG
notes: extracellular domain; also called dimeric N-cadherin-Fc; wild type N-cadherin; not shown: hinge region, CH2 and CH3 domains of human IgG1 heavy chain (vector pIgSig)
B2: chicken N-cadherin-Fc fusion protein with the mutation D134A, dimeric (Fc fusion, UniProt P10288 165-728, looked up)
chain: DWVIPPINLPENSRGPFPQELVRIRSDRDKSLSLRYSVTGPGADQPPTGIFIINPISGQLSVTKPLDREQIASFHLRAHAVDVNGNQVENPIDIVINVIDMNDNRPEFLHQVWNGTVPEGSKPGTYVMTVTAIAADDPNAQNGMLRYRILSQAPSSPSPNMFTINNETGDIITVAAGLDREKVQQYTLIIQATDMEGNPTYGLSNTATAVITVTDVNDNPPEFTAMTFYGEVPENRVDVIVANLTVTDKDQPHTPAWNARYQMTGGDPTGQFTILTDPNSNDGLVTVVKPIDFETNRMFVLTVAAENQVPLAKGIQHPPQSTATVSITVIDVNESPYFVPNPKLVRQEEGLLAGSMLTTFTARDPDRYMQQTSLRYSKLSDPANWLKIDPVNGQITTTAVLDRESIYVQNNMYNATFLASDNGIPPMSGTGTLQIYLLDINDNAPQVNPKEATTCETLQPNAINITAVDPDIDPNAGPFAFELPDSPPSIKRNWTIVRISGDHAQLSLRIRFLEAGIYDVPIVITDSGNPHASSTSVLKVKVCQCDINGDCTDVDRIVGAGLGT
notes: extracellular domain; also called D134A mutant; N-cadherin Fc mutant D134A; not shown: hinge region, CH2 and CH3 domains of human IgG1 heavy chain (vector pIgSig)

Tests used:
[1] = target: the molecule itself; experiment: bead aggregation assay, 1.25 mM CaCl2
Experimental: Dynabeads (Dynal Biotech) coupled to Protein A were coated with N-cadherin Fc at 1 μg/ml in calcium and magnesium-free HBSS containing 0.1% Tween 20, 1% FCS and 4 mM EDTA. Eppendorf tubes containing beads and fusion protein were rotated slowly for 1 hour at room temperature to allow binding to take place. The beads were then washed in the above assay buffer lacking EDTA and then resuspended in the same buffer supplemented with 1.25 mM CaCl₂. Beads were allowed to aggregate in a volume of 100 μl for 2 hours at 37° C. by slow rotation, in an eppendorf tube, at approximately 20 rpm. Aggregation was then assessed by light microscopy.
In the experiments described so far in this example, disruption of the salt bridge prevented intramolecular docking of Trp 2 in one or both components of the dimer. In an alternative strategy to prevent intramolecular docking, we removed Trp2 by introducing the mutation W2G or blocked the hydrophobic acceptor pocket with an isoleucine side chain projecting into the cavity using the mutation A801. N-cadherin Fc fusion proteins with these mutations were then tested against our panel of K562 transfectants (FIG. 17a). In keeping with the explanation given in FIG. 5, the W2G mutant acted as a strand acceptor and therefore adhered strongly to the E89A mutant whereas the A80I mutant was a strand donor and adhered to the GG extension mutant. […] In contrast, beads coated with the W2G or A801 mutants and tested separately clustered in twos and threes, whereas beads coated with the negative control mutant, D134A, were entirely monodisperse. To test whether all five extracellular domains of N-cadherin (EC1-EC5) are necessary for the strong adhesive interaction between the complementary mutants, we compared the adhesive activity of the W2G mutant prepared as a full length (EC1-EC5) Fc fusion protein with that of the same mutant prepared as a truncated construct containing only cadherin domains EC1 and EC2.

[2] = target: T1, mouse N-cadherin with an uncleaved prodomain expressed on L cells (furin site RQKR replaced with Factor Xa … (mouse, UniProt P15116 160-906)); experiment: adhesion of L cell transfectants to coated N-cadherin Fc
T1 construct: whole, on cells; Prodomain is still attached in the assay; also called unprocessed N-cadherin; L cell transfectants expressing unprocessed N-cadherin
T1 sequence (looked up): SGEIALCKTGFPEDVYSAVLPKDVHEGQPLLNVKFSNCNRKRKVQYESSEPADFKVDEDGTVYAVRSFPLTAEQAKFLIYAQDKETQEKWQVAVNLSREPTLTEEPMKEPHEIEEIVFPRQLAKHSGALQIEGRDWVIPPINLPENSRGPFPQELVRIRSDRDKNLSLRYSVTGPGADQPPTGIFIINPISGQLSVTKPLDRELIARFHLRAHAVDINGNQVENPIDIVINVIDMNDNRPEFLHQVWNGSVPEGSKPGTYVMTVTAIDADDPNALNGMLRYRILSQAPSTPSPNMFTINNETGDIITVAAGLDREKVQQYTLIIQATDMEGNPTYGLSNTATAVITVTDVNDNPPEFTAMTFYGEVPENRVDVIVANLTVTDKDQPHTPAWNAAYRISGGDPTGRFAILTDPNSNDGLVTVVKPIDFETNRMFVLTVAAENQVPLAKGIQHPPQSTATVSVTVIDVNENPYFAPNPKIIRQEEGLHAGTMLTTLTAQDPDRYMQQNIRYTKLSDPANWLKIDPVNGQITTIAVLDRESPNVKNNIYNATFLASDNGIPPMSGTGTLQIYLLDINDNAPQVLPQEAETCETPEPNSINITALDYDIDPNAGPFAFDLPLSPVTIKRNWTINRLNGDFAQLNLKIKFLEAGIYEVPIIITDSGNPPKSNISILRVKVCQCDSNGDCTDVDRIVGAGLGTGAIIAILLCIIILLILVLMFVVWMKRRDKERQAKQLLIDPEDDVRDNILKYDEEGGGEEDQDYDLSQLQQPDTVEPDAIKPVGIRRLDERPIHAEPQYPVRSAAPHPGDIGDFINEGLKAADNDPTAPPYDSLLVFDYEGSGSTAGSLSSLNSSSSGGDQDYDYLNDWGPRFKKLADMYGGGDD
Experimental: Adhesion tests were conducted substantially as described in Example 1. Briefly, K562 Cells or L cells transfected with wild type or mutant N-cadherin were allowed to settle for 45 minutes at 37° C. onto N-cadherin Fc fusion proteins coated at 1 μg/ml to a 96 well plate. Non-adherent cells were then washed off and residual adherent cells were quantitated by measuring acid phosphatase activity. Assays were conducted in quadruplicate and results are expressed as % cells adhering +/−SEM.
L cells expressing mouse N-cadherin with an uncleaved prodomain (see Koch et al., 2004) were obtained from Dr Weisong Shan (Montreal Neurological Institute). The normal furin cleavage site, RQKR, had been replaced with a Factor Xa site, IEGR, to give the correct N-terminus after digestion. […] L cells suspended in HBSS containing 0.1% BSA were treated with 0.01% trypsin (Sigma, Type XI) in the presence of 2 mM Ca²⁺ for 10 minutes at 37° C. and the digestion was then quenched with soyabean trypsin inhibitor, 0.5 mg per ml (Sigma, Type I-S). Cells were then washed and tested for adhesion to N-cadherin Fc-fusion protein. To check for complete removal of the prodomain, the cells were lysed in SDS sample buffer and the cadherin analysed by SDS PAGE under reducing conditions on a 4-12% gradient gel. […]

Binder | binding result [1] | binding result [2]
B1 | binds | no binding (tested: Fc fusion protein coated at 1 µg/ml)
B2 | no binding (tested: beads coated at 1 µg/ml) | no binding (tested: Fc fusion protein coated at 1 µg/ml)
